In one experiment the test system is SST-R2 and SST-R5. As to conditions: activity described in WO 99/65508; cited from earlier work.
Another experiment has as its target T1, human cloned SST-R2 (human, UniProt P30874 1-369).
T1 construct: whole, on cells; Assayed as membrane preparations of CHO cells expressing the cloned receptor, not as intact cells; also called hSST-R2; human SST-R2
Description: inhibition of 125I-Tyr11-SRIF-14 binding to membranes of CHO cells expressing cloned human SST-R2. As to the method: The SST analogs were tested for their potency in inhibition of the binding of ¹²⁵I-Tyr¹¹-SRIF (based on the method described by Raynor et. al., Molecular Pharmnacology 43: 838, 1993) to membrane preparations expressing the transmembranal SST receptors (SST-R1, 2, 3, 4 or 5). The receptor preparations used for these tests were either from the cloned human receptors selectively and stably expressed in Chinese Hamster Ovary (CHO) cells or from cell lines naturally expressing the SST-R5. Typically, cell membranes were homogenized in Tris buffer in the presence of protease inhibitors and incubated for 30-40 minutes with ¹²⁵I-Tyr¹¹-SRIF with different concentrations of the tested sample. The binding reactions were filtered, the filters were washed and the bound radioactivity was counted in β counter after addition of scintillation colution. Non specific binding was defined as the radioactivity remaining bound in the presence of 1 μM unlabeled SRIF-14.

*1 amine or outer side, *2 acyl side, *3 side chain or, on linkers, in order; H or OH if unused. Where no end group is shown, it is not given here. [ ]: non-standard residue; d: D form. ReO = oxorhenium(V), one metal core binding both hemi-chelators, from trichlorooxobis(triphenylphosphine)rhenium(V); GlyN3 = N-(3-aminopropyl)glycine amide, Cys acylated on the omega-amine, NC(=O)CN(CCCN[*:3])[*:1]; GlyN6 = Gly building unit carrying an omega-amine (Cys attached there); N(2-Aminoethyl)Gly = O=C(CN(CCN[*:3])[*:1])[*:2]

T1 sequence (P30874 whole entry): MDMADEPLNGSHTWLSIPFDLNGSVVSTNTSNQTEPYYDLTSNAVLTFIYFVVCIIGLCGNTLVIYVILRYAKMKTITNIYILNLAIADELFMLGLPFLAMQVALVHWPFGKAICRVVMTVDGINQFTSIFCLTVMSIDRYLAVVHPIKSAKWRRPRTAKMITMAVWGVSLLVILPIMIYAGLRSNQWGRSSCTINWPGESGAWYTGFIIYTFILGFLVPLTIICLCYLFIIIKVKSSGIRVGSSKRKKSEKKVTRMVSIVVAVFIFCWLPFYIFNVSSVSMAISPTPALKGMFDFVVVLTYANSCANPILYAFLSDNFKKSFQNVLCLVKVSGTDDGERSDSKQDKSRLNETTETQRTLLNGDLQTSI

As for “*GABA-Phe-Trp-DTrp-Lys-Thr-Phe-GlyC3*-NH2 [PTR 3173]”, the receptor selectivity result with SST-R2 and SST-R5 is “selective for SST-R2 and SST-R5”.

B1: ReO-GF-12 (peptide)
peptide: CGFWWKTFG
modifications: not fully specified; D-Cys at 1; D-Trp at 5; GlyN6 building unit at 9 with D-Cys on its omega-amine; C-terminal amide; ReO (oxorhenium(V)) chelated by the two Cys closes the ring
The IC50 is the concentration needed to halve the response being measured. Higher therefore signals lower potency. Consider B1, for which, in the experiment with human cloned SST-R2, the IC50 came to 9 nM.

B2: ReO-GF-48 (peptide)
peptide: CFWWKTFG
modifications: not fully specified; D-Cys at 1; D-Trp at 4; GlyN2 building unit at 8 with D-Cys on its omega-amine; C-terminal amide; ReO (oxorhenium(V)) chelated by the two Cys closes the ring
For the molecule B2, in the experiment with human cloned SST-R2, the IC50 is more than 10 nM.

B3: ReO-GF-33 (peptide)
peptide: CXFWWKTFG
modifications: L-Cys at 1; GABA at 2 (written X); D-Trp at 5; GlyN2 building unit at 9 with L-Cys on its omega-amine; C-terminal amide; ReO (oxorhenium(V)) chelated by the two Cys closes the ring
B3 showed an IC50 with human cloned SST-R2 of more than 10 nM.

B4: ReO-GF-8 (peptide)
peptide: CXFWWKTFG
modifications: not fully specified; D-Cys at 1; beta-Ala at 2 (written X); D-Trp at 5; GlyN6 building unit at 9 with D-Cys on its omega-amine; C-terminal amide; ReO (oxorhenium(V)) chelated by the two Cys closes the ring
In turn, B4 gave an IC50 in the experiment with human cloned SST-R2 of 5 nM.

B5: ReO-GF-13 (peptide)
peptide: CFW[dW]KTF[GlyN6](Cys)-NH2
modifications: bridge (positions not given here) via ReO; not fully specified (bridges); also: oxorhenium(V) metal chelate (N2S2)
B5 had an IC50 with human cloned SST-R2 of approximately 10 nM.

B6: ReO-GF-5 (peptide)
peptide: CXFWWKTFG
modifications: L-Cys at 1; beta-Ala at 2 (written X); D-Trp at 5; GlyN6 building unit at 9 with L-Cys on its omega-amine; C-terminal amide; ReO (oxorhenium(V)) chelated by the two Cys closes the ring
Take B6: in the experiment with human cloned SST-R2, the IC50 came out at 35 nM.

B7: ReO-GF-14 (peptide)
peptide: CFWWKTFG
modifications: not fully specified; L-Cys at 1; D-Trp at 4; GlyN6 building unit at 8 with D-Cys on its omega-amine; C-terminal amide; ReO (oxorhenium(V)) chelated by the two Cys closes the ring
notes: also called ReO-LCys*-Phe-Trp-DTrp-Lys-Thr-Phe-GlyN6(DCys*)-NH2
The molecule B7 displayed an IC50 with human cloned SST-R2 of 7 nM.

B8: ReO-GF-41 (peptide)
peptide: CGFW[dW]KTF[N(2-Aminoethyl)Gly](Cys)-NH2
modifications: bridge (positions not given here) via ReO; not fully specified (bridges); also: N2S2 oxorhenium(V) chelate via the two Cys
On to B8, for which the IC50 with human cloned SST-R2 is more than 10 nM.

B9: ReO-GF-44 (peptide)
peptide: CGFWWKTFG
modifications: not fully specified; D-Cys at 1; D-Trp at 5; GlyN2 building unit at 9 with D-Cys on its omega-amine; C-terminal amide; ReO (oxorhenium(V)) chelated by the two Cys closes the ring
In the experiment with human cloned SST-R2, B9 displayed an IC50 of more than 10 nM.

B10: ReO-GF-23 (peptide)
peptide: CXFWWKTFG
modifications: D-Cys at 1; beta-Ala at 2 (written X); D-Trp at 5; GlyN3 building unit at 9 with L-Cys on its omega-amine; C-terminal amide; ReO (oxorhenium(V)) chelated by the two Cys closes the ring
In the experiment with human cloned SST-R2, B10 returned an IC50 of approximately 10 nM.

B11: ReO-GF-38 (peptide)
peptide: CXFWWKTFG
modifications: L-Cys at 1; beta-Ala at 2 (written X); D-Trp at 5; GlyN2 building unit at 9 with D-Cys on its omega-amine; C-terminal amide; ReO (oxorhenium(V)) chelated by the two Cys closes the ring
With B11, the IC50 in the experiment with human cloned SST-R2 was more than 10 nM.

B12: ReO-GF-30 (peptide)
peptide: CFW[dW]KTF[GlyN3](dC)-NH2
modifications: bridge (positions not given here) via ReO; not fully specified (bridges); also: N2S2 oxorhenium(V) chelate via the two Cys
In the experiment with human cloned SST-R2, B12 registered an IC50 of 13 nM. In other words, the double-digit nanomolar range.

B13: ReO-GF-45 (peptide)
peptide: CFW[dW]KTF[N(2-Aminoethyl)Gly](Cys)-NH2
modifications: bridge (positions not given here) via ReO; not fully specified (bridges); also: N2S2 oxorhenium(V) chelate via the two Cys
In the experiment with human cloned SST-R2, B13 registered an IC50 of more than 10 nM.

B14: ReO-GF-16 (peptide)
peptide: CFWWKTFG
modifications: not fully specified; D-Cys at 1; D-Trp at 4; GlyN6 building unit at 8 with D-Cys on its omega-amine; C-terminal amide; ReO (oxorhenium(V)) chelated by the two Cys closes the ring
In the experiment with human cloned SST-R2, B14 registered an IC50 of 18 nM.

B15: ReO-GF-25 (peptide)
peptide: CGFW[dW]KTF[GlyN3](Cys)-NH2
modifications: bridge (positions not given here) via ReO; not fully specified (bridges); also: N2S2 oxorhenium(V) chelate via the two Cys
B15 registered an IC50 with human cloned SST-R2 of more than 10 nM.

B16: ReO-GF-20 (peptide)
peptide: CXFWWKTFG
modifications: not fully specified; D-Cys at 1; GABA at 2 (written X); D-Trp at 5; GlyN3 building unit at 9 with D-Cys on its omega-amine; C-terminal amide; ReO (oxorhenium(V)) chelated by the two Cys closes the ring
B16: the IC50 in the experiment with human cloned SST-R2 is 10 nM.

B17: ReO-GF-11 (peptide)
peptide: CGFWWKTFG
modifications: not fully specified; D-Cys at 1; D-Trp at 5; GlyN6 building unit at 9 with L-Cys on its omega-amine; C-terminal amide; ReO (oxorhenium(V)) chelated by the two Cys closes the ring
notes: also called ReO-DCys*-Gly-Phe-Trp-DTrp-Lys-Thr-Phe-GlyN6(LCys*)-NH2
The molecule B17 returned an IC50 with human cloned SST-R2 of 4 nM. This IC50 is about 2.5-fold lower than that of the molecule before.

B18: ReO-GF-29 (peptide)
peptide: CFWWKTFG
modifications: not fully specified; L-Cys at 1; D-Trp at 4; GlyN3 building unit at 8 with L-Cys on its omega-amine; C-terminal amide; ReO (oxorhenium(V)) chelated by the two Cys closes the ring
notes: also called ReO-LCys*-Phe-Trp-DTrp-Lys-Thr-Phe-GlyN3(LCys*)-NH2
B18 came in with an IC50 with human cloned SST-R2 of 2 nM.

B19: ReO-GF-22 (peptide)
peptide: CXFWWKTFG
modifications: L-Cys at 1; beta-Ala at 2 (written X); D-Trp at 5; GlyN3 building unit at 9 with D-Cys on its omega-amine; C-terminal amide; ReO (oxorhenium(V)) chelated by the two Cys closes the ring
Turning to B19, in the experiment with human cloned SST-R2, the IC50 worked out at 11 nM.

B20: ReO-GF-46 (peptide)
peptide: CFW[dW]KTF[N(2-Aminoethyl)Gly](dC)-NH2
modifications: bridge (positions not given here) via ReO; not fully specified (bridges); also: N2S2 oxorhenium(V) chelate via the two Cys
B20 had an IC50 with human cloned SST-R2 of more than 10 nM.

B21: ReO-GF-10 (peptide)
peptide: CGFWWKTFG
modifications: not fully specified; L-Cys at 1; D-Trp at 5; GlyN6 building unit at 9 with D-Cys on its omega-amine; C-terminal amide; ReO (oxorhenium(V)) chelated by the two Cys closes the ring
notes: also called ReO-LCys*-Gly-Phe-Trp-DTrp-Lys-Thr-Phe-GlyN6(DCys*)-NH2
Take B21: in the experiment with human cloned SST-R2, the IC50 was 3 nM.

B22: ReO-GF-27 (peptide)
peptide: CGFWWKTFG
modifications: not fully specified; D-Cys at 1; D-Trp at 5; GlyN3 building unit at 9 with L-Cys on its omega-amine; C-terminal amide; ReO (oxorhenium(V)) chelated by the two Cys closes the ring
With B22, in the experiment with human cloned SST-R2, the IC50 amounted to 20 nM.

B23: ReO-GF-35 (peptide)
peptide: CXFWWKTFG
modifications: D-Cys at 1; GABA at 2 (written X); D-Trp at 5; GlyN2 building unit at 9 with L-Cys on its omega-amine; C-terminal amide; ReO (oxorhenium(V)) chelated by the two Cys closes the ring
B23 yielded an IC50 in the experiment with human cloned SST-R2 of more than 10 nM.

Values taken from patent US20050226813A1, “Labelled somatostatin analogs backbone cyclized through metal complexation” (priority 2002, published 2005).
